Patent US20220025023A1 (AC IMMUNE, published 2022)
Where no end group is shown, it is not given here.

B1: ACI-7062-415C4-Ab1 (antibody, IgG1, V domains shown)
VH: QVTLKESGPGILQPSQTLSLTCSFSGFSLSTYGIGVGWIRQPSGKGLEWLAHIWWNDNKYYKTALKSRLTISKDTSNNQVFLKIASVDTADSATYYCARVYGNLYYFGYWGQGTTLTVSS
VL: DVLMTQTPLSLPVSLGDQASISCRSSQSIVHSTGNTYLEWYLQKPGQSPKLLIYKVSNRFSGVPDRFSGSGSGTDFTLKISRVEAEDLGVYYCFQGSRVPTFGAGTKLELKR
notes: also called 415C4C6; clone 14
B2: ACI-7062-412E12-Ab1 (antibody, IgG1, V domains shown)
VH: DVQLVESGGGLVQPGGSRRLSCAASGFTFSRFGMHWVRQAPEKGLEWVAYIRSGSDIIYYADSVKGRFTISRDNPENTLFLQMTSLRSEDTAMYYCARSGTTVPFDYWGQGTSLTVSS
VL: DIVMTQSPSSLAMSVGQKVTMSCKSSQSLLNSGDQKNYLAWYQQKPGQSPELLLYFASTRASGVPDRFIGSGSGTDFSLTISSVQAEDLADYFCQQHYSIPLTFGAGTKLELKR
notes: also called 412E12A2; clone 10

Legend:
[1] = target: T1, BSA (bovine, UniProt P02769); test: indirect ELISA, control coat in the 15-mer series, hybridoma supernatant
T1 construct: not specified; also called bovine serum albumin
T1 sequence (P02769 25-607 limits assumed): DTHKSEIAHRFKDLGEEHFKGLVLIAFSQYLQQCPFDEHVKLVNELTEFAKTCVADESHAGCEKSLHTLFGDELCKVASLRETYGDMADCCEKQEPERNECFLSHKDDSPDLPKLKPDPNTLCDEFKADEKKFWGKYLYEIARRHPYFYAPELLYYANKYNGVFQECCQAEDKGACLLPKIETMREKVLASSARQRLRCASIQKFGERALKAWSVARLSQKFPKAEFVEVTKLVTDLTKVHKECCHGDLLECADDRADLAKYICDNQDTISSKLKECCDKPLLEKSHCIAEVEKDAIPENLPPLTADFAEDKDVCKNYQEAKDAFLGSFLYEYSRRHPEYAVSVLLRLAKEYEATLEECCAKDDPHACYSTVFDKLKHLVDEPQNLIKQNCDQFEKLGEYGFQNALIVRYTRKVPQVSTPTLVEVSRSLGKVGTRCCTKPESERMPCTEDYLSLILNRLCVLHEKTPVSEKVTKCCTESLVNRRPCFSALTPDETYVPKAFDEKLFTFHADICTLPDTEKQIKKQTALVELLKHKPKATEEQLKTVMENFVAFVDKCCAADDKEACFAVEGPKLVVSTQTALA

[2] = target: T2, TDP-218 peptide (human); test: indirect ELISA, 8-mer peptide library
T2 construct: 8-mer of human TDP-43; same ELISA method as for the biotinylated 15-mers
T2 peptide: MDVFIPKP
Experimental: (§1) Serum-free supernatants were harvested from stable hybridomas. The supernatants containing antibodies of interest were then screened by an indirect ELISA assay to determine epitopes. Epitopes were mapped using a library of TDP-43 15-mer peptides. Briefly, 96-well streptavidin-coated 96-well ELISA plates were incubated with 5 μg/mL of biotinylated 15-mer peptides spanning the amino acids (aa) 199-285 of human TDP-43 with 9 aa offset and 6 aa overlap. Plates were washed thoroughly with 0.05% Tween-20/PBS and then blocked with 1% bovine serum albumin (BSA) in 0.05% Tween-20/PBS for 1 hour at 37° C. The antibody contained in the hybridoma supernatant was then added at the indicated dilutions, and incubated for 2 hours at 37° C. after which the plates were washed as described previously. An AP-conjugated anti-mouse IgG secondary antibody (Jackson ImmunoResearch Laboratories, United Kingdom) was added at 1/1000 dilution in 0.05% Tween-20/PBS for 1 hour at 37° C. After the final wash, plates were incubated with pNPP (Sigma-Aldrich, Switzerland) an AP substrate solution, and read at 405 nm using an ELISA plate reader (Tecan).
(§2) Furthermore, antibodies were tested using an indirect ELISA on a peptide library of 8-mer peptides with 7 aa overlap covering the sequence of human TDP-43 from aa 210 to aa 231, using the same ELISA method as describe previously in this section.

[3] = target: T3, TDP-214 peptide (human); test: indirect ELISA, 8-mer peptide library
T3 construct: 8-mer of human TDP-43; same ELISA method as for the biotinylated 15-mers
T3 peptide: YGDVMDVF
Experimental: as §1, §2

[4] = target: T4, TDP-217 peptide (human); test: indirect ELISA, 8-mer peptide library
T4 construct: 8-mer of human TDP-43; same ELISA method as for the biotinylated 15-mers
T4 peptide: VMDVFIPK
Experimental: as §1, §2

[5] = target: T5, TDP-222 peptide (human); test: indirect ELISA, 8-mer peptide library
T5 construct: 8-mer of human TDP-43; same ELISA method as for the biotinylated 15-mers
T5 peptide: IPKPFRAF
Experimental: as §1, §2

[6] = target: T6, TDP-212 peptide (human); test: indirect ELISA, 8-mer peptide library
T6 construct: 8-mer of human TDP-43; same ELISA method as for the biotinylated 15-mers
T6 peptide: SQYGDVMD
Experimental: as §1, §2

[7] = target: T7, TDP-211 peptide (human); test: indirect ELISA, 8-mer peptide library
T7 construct: 8-mer of human TDP-43; same ELISA method as for the biotinylated 15-mers
T7 peptide: FSQYGDVM
Experimental: as §1, §2

[8] = target: T8, TDP-220 peptide (human); test: indirect ELISA, 8-mer peptide library
T8 construct: 8-mer of human TDP-43; same ELISA method as for the biotinylated 15-mers
T8 peptide: VFIPKPFR
Experimental: as §1, §2

[9] = target: T9, TDP-213 peptide (human); test: indirect ELISA, 8-mer peptide library
T9 construct: 8-mer of human TDP-43; same ELISA method as for the biotinylated 15-mers
T9 peptide: QYGDVMDV
Experimental: as §1, §2

[10] = target: T10, TDP-210 peptide (human); test: indirect ELISA, 8-mer peptide library
T10 construct: 8-mer of human TDP-43; same ELISA method as for the biotinylated 15-mers
T10 peptide: FFSQYGDV
Experimental: as §1, §2

[11] = target: T11, TDP-223 peptide (human); test: indirect ELISA, 8-mer peptide library
T11 construct: 8-mer of human TDP-43; same ELISA method as for the biotinylated 15-mers
T11 peptide: PKPFRAFA
Experimental: as §1, §2

[12] = target: T12, TDP-224 peptide (human); test: indirect ELISA, 8-mer peptide library
T12 construct: 8-mer of human TDP-43; same ELISA method as for the biotinylated 15-mers
T12 peptide: KPFRAFAF
Experimental: as §1, §2

[13] = target: T13, TDP-219 peptide (human); test: indirect ELISA, 8-mer peptide library
T13 construct: 8-mer of human TDP-43; same ELISA method as for the biotinylated 15-mers
T13 peptide: DVFIPKPF
Experimental: as §1, §2

[14] = target: T14, TDP-221 peptide (human); test: indirect ELISA, 8-mer peptide library
T14 construct: 8-mer of human TDP-43; same ELISA method as for the biotinylated 15-mers
T14 peptide: FIPKPFRA
Experimental: as §1, §2

[15] = target: T15, TDP-216 peptide (human); test: indirect ELISA, 8-mer peptide library
T15 construct: 8-mer of human TDP-43; same ELISA method as for the biotinylated 15-mers
T15 peptide: DVMDVFIP
Experimental: as §1, §2

[16] = target: T16, TDP-3 peptide (human); test: Luminex bead assay, TDP-3 peptide beads (irrelevant target)
T16 construct: Irrelevant control peptide; conjugated to Luminex beads in the assay; also called TDP-43 aa 310-370; irrelevant target
T16 peptide: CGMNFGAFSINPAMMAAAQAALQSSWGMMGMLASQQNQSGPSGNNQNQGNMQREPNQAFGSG

[17] = target: T17, TP-25 peptide (human, also: biotinylated, site not given here); test: indirect ELISA, biotinylated 15-mer peptide on streptavidin plate, hybridoma supernatant
T17 construct: 15-mer of human TDP-43 from the library spanning aa 199-285; captured on streptavidin plates
T17 peptide: VMDVFIPKPFRAFAF
Experimental: as §1

[18] = target: T18, TP-24 peptide (human, also: biotinylated, site not given here); test: as above
T18 construct: 15-mer of human TDP-43 from the library spanning aa 199-285; captured on streptavidin plates
T18 peptide: REFFSQYGDVMDVFI
Experimental: as §1

[19] = target: T19, TP-29 (also: biotinylated, site not given here); test: indirect ELISA, biotinylated 15-mer on streptavidin plate, hybridoma supernatant
T19 construct: also called TP-29 peptide
T19 peptide: ISVHISNAEPKHNSN
Experimental: as §1

[20] = target: T20, TP-31 (also: biotinylated, site not given here); test: as above
T20 construct: also called TP-31 peptide
T20 peptide: ERSGRFGGNPGGFGN
Experimental: as §1

[21] = target: T21, TP-26 (also: biotinylated, site not given here); test: as above
T21 construct: also called TP-26 peptide
T21 peptide: FRAFAFVTFADDQIA
Experimental: as §1

[22] = target: T22, TP-27 (also: biotinylated, site not given here); test: as above
T22 construct: also called TP-27 peptide
T22 peptide: ADDQIAQSLCGEDLI
Experimental: as §1

[23] = target: T23, TP-28 (also: biotinylated, site not given here); test: as above
T23 construct: also called TP-28 peptide
T23 peptide: CGEDLIIKGISVHIS
Experimental: as §1

[24] = target: T24, TP-30 (also: biotinylated, site not given here); test: as above
T24 construct: also called TP-30 peptide
T24 peptide: PKHNSNRQLERSGRF
Experimental: as §1

[25] = target: T25, TDP-215 peptide (human); test: indirect ELISA, 8-mer peptide library, OD 405 nm
T25 construct: same ELISA method as for the biotinylated 15-mers
T25 peptide: GDVMDVFI
Experimental: as §1, §2

[26] = target: T26, TDP-1 peptide (human); test: Luminex bead assay, antibody serial dilution, TDP-1 peptide beads
T26 construct: Immunogen peptide; conjugated to Luminex beads in the assay; also called TDP-43 aa 212-272
T26 peptide: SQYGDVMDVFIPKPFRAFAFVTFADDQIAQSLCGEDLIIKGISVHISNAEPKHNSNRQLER

Binder	binding result [1]	binding result [2]	binding result [3]	binding result [4]	binding result [5]	binding result [6]	binding result [7]	binding result [8]	binding result [9]	binding result [10]	binding result [11]	binding result [12]	binding result [13]	binding result [14]	binding result [15]	binding result [16]	OD [17]	OD [18]	binding result [19]	binding result [20]	other results
B1	no binding	no binding	no binding	no binding	no binding	no binding	no binding	no binding	no binding	no binding	no binding	no binding	no binding	no binding	no binding	no binding	1.2 O.D. (405 nm)	3.8 O.D. (405 nm)	no binding	no binding	binding result [21]: no binding; binding result [22]: no binding; binding result [23]: no binding; binding result [24]: no binding; binding result [25]: binds; EC50 [26]: < 10 pM
B2	no binding	no binding	no binding	no binding	no binding	no binding	no binding	no binding	no binding	no binding	no binding	no binding	no binding	no binding	no binding	no binding	1.2 O.D. (405 nm)	3.2 O.D. (405 nm)	no binding	no binding	binding result [21]: no binding; binding result [22]: no binding; binding result [23]: no binding; binding result [24]: no binding; binding result [25]: binds; EC50 [26]: < 10 pM
